The values that follow come from publication PMC8017132.

The target in test [1] is activated coagulation factor XI (UniProt P03951). The test is described as follows: stoichiometry of inhibition titration (residual protease activity); varying ratios of AAT variant to protease incubated at ambient temperature for 2 h, residual activity determined at 37°C, line regressed to zero residual activity.
The target is the same in test [2]. The test is described as follows: inhibition kinetics (residual protease activity on chromogenic substrate); pseudo-first-order, at least a 10:1 molar ratio of AAT variant to protease (5–75 nM), 37°C, discontinuous method; k2 = kobs divided by the initial AAT variant concentration.
The target of another test is activated protein C (UniProt P04070). Described as above.
The target in another test is factor XIIa (UniProt P00748). Described as above.
The next test deals with thrombin (UniProt P00734). The test is described as above.

Sequence of UniProt P03951 (P03951 19-387, chain 1 of 2): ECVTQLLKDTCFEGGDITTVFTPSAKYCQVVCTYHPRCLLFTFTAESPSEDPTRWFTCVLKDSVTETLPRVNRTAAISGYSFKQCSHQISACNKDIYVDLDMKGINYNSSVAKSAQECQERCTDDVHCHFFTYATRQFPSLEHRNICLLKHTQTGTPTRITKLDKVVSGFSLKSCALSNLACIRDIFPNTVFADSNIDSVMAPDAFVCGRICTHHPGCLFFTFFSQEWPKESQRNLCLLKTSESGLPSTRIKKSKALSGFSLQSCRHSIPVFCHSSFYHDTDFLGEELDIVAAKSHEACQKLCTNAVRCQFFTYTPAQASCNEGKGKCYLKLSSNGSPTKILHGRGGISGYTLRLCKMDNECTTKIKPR
Sequence of UniProt P03951 (P03951 388-624, chain 2 of 2): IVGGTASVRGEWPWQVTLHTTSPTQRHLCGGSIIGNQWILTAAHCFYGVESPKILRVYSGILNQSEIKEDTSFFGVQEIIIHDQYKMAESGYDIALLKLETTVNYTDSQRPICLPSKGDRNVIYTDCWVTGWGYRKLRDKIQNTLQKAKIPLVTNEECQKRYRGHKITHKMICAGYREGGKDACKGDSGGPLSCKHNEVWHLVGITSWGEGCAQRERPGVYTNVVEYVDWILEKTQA

“alpha-1 antitrypsin M358R (from UniProt P01009 25-418) (natural protein)”: in test [1], the SI (stoichiometry of inhibition) is 2.7. For the same substance, the k2 (second-order rate constant of inhibition) worked out at 140000 M⁻¹ s⁻¹ in test [2], 25000 M⁻¹ s⁻¹ in the test with activated protein C, 23000 M⁻¹ s⁻¹ with factor XIIa and 180000 M⁻¹ s⁻¹ with thrombin.
